{
  "source": "patent US20170369590A1",
  "about": "(Genmab, published 2017)",
  "binders": {"B1": {"name": "HuMab 059 (antibody, V domains shown)", "VH": "QVQLVQSGAEVKKPGASVRVPCKASGYTFTRYGISWVRQAPGQGLEWMGWISAYNGKTYYAQKLQGRVTMTTDTSTSTAYMELRSLRSDDTAVYYCARSPLLWFEELYFDYWGQGTLVTVSS", "VL": "EIVLTQSPGTLSLSPGERATLSCRASQSVSSTYLAWYQQKPGQAPRLLIYGASSRATGIPDRFSGSGSGTDFTLTISRLEPEDFAVYYCQQYGTSLFTFGPGTKVDIK", "notes": "also called PC1014-059"}, "B2": {"name": "HuMab 111 (antibody, V domains shown)", "VH": "QVQLVQSGAEVKKPGSSVKVSCKASGGTFSSYGISWVRQAPGPGLEWMGRIIPILGIANYAQKFQGRVTITADKSTNTAYMELSSLRSEDTAVYYCARDQEYSSNWYYWGQGTLVTVSS", "VL": "not shown"}, "B3": {"name": "HuMab 060 (antibody, V domains shown)", "VH": "EVQLVQSGAEVKKPGESLKISCKGSGYRFTSYWIGWVRQMPGKGLEWMGSIYPGDSYTRNSPSFQGQVTISADKSIATAYLQWNSLKASDTAMYYCARHAGDFYYFDGLDVWGQGTTVTVSS", "VL": "not shown", "notes": "also called PC1014-060"}, "B4": {"name": "HuMab 106 (antibody, V domains shown)", "VH": "EVQLVQSGAEVKKPGESLKISCKGSGYSFTRYWIGWVRQMPGKGLEWMGIIYPGDSDTRYSPSFQGQVTISADKSISTAYLQWSSLKASDTAMYYCARLTGDRGFDYYSGMDVWGQGTTVTVSS", "VL": "not shown"}, "B5": {"name": "HuMab 005 (antibody, V domains shown)", "VH": "EVQLVQSGAEVKKPGESLKISCKASGYSFHFYWIGWVRQMPGKGLEWMGSIYPGDSDTRYRPSFQGQVTISADKSISTAYLQWTSLKASDTAIYYCARQRGDYYYFYGMDVWGQGTTVTVSS", "VL": "not shown", "notes": "also called PC1014-005; TH1014-005"}},
  "data": [
    {"target": "T1, HER2ECDHis (human, UniProt P04626 23-653, biotinylated in the cross-block ELISA (sites not given))", "T1 construct": "range 1-653; expressed in HEK-293F; also called soluble HER2; biotinylated HER2ECDHis", "assay": "ELISA; competitor 059", "units": {"% binding vs no competitor": "%"}, "values": [
      {"binder": "B1", "% binding vs no competitor": 12},
      {"binder": "B2", "% binding vs no competitor": 65},
      {"binder": "B3", "% binding vs no competitor": 14},
      {"binder": "B4", "% binding vs no competitor": 25},
      {"binder": "B5", "% binding vs no competitor": 22}
    ]},
    {"target": "T1, HER2ECDHis", "assay": "ELISA; competitor C1", "units": {"% binding vs no competitor": "%"}, "description": "(§1) Next, the ELISA wells were washed with PBST (PBS supplemented with 0.05% Tween-20 [Sigma-Aldrich, Zwijndrecht, The Netherlands]) and blocked for one hour at room temperature (RT) with PBSTC (PBST supplemented 2% [v/v] chicken serum [Gibco, Paisley, Scotland]). The ELISA wells were then washed with PBST and incubated for one hour at RT with HER2ECDHis serially diluted in PBSTC (0.25-2 μg/mL in 2-fold dilutions). […] The plate was thereafter washed with PBST and incubated for one hour with 0.1 μg/mL Streptavidin-poly-HRP (Sanquin, Amsterdam, The Netherlands) diluted in PBST. After washing, the reaction was visualized through a 15 minutes incubation with 2,2′-azino-bis (3-ethylbenzothiazoline-6-sulfonic acid) (ABTS: one ABTS tablet diluted in 50 mL ABTS buffer (Roche Diagnostics, Almere, The Netherlands)) at RT protected from light. The colorization was stopped by adding an equal volume of oxalic acid (Sigma-Aldrich, Zwijndrecht, The Netherlands). Fluorescence at 405 nm was measured on a microtiter plate reader (Biotek Instruments, Winooski, USA).\n(§2) Each HER2 antibody was coated to the ELISA wells at the sub-optimal dose that was determined as described above. After blocking of the ELISA wells, the wells were incubated with the predetermined concentration of 1 μg/mL biotinylated HER2ECDHis in the presence or absence of an excess of a second (competitor) HER2 antibody. The ELISA was then performed as described above. […] Percentage competition was then determined as 100 minus the percentage of inhibition.", "values": [
      {"binder": "B1", "% binding vs no competitor": 78},
      {"binder": "B2", "% binding vs no competitor": 122},
      {"binder": "B3", "% binding vs no competitor": 108},
      {"binder": "B4", "% binding vs no competitor": 471},
      {"binder": "B5", "% binding vs no competitor": 157}
    ]},
    {"target": "T1, HER2ECDHis", "assay": "ELISA; competitor 111", "units": {"% binding vs no competitor": "%"}, "description": "as §1, §2", "values": [
      {"binder": "B1", "% binding vs no competitor": 12},
      {"binder": "B2", "% binding vs no competitor": 14},
      {"binder": "B3", "% binding vs no competitor": 35},
      {"binder": "B4", "% binding vs no competitor": 21},
      {"binder": "B5", "% binding vs no competitor": 32}
    ]},
    {"target": "T1, HER2ECDHis", "assay": "ELISA; competitor 006", "units": {"% binding vs no competitor": "%"}, "description": "as §1, §2", "values": [
      {"binder": "B1", "% binding vs no competitor": 11},
      {"binder": "B2", "% binding vs no competitor": 10},
      {"binder": "B3", "% binding vs no competitor": 6},
      {"binder": "B4", "% binding vs no competitor": 25},
      {"binder": "B5", "% binding vs no competitor": 15}
    ]},
    {"target": "T1, HER2ECDHis", "assay": "ELISA; competitor Pert", "units": {"% binding vs no competitor": "%"}, "description": "as §1, §2", "values": [
      {"binder": "B1", "% binding vs no competitor": 107},
      {"binder": "B2", "% binding vs no competitor": 102},
      {"binder": "B3", "% binding vs no competitor": 99},
      {"binder": "B4", "% binding vs no competitor": 275},
      {"binder": "B5", "% binding vs no competitor": 115}
    ]},
    {"target": "T2, human epidermal growth factor receptor 2 (HER2), membrane-bound on cells (human, UniProt P04626 23-1255)", "assay": "cell-based or functional assay", "units": {"% cells killed, A431, anti-kappa-ETA'-conjugated": "%", "EC50 of cell kill, A431, anti-kappa-ETA'-conjugated": "µg/mL"}, "values": [
      {"binder": "B3", "% cells killed, A431, anti-kappa-ETA'-conjugated": 85, "EC50 of cell kill, A431, anti-kappa-ETA'-conjugated": "~0.01"},
      {"binder": "B5", "% cells killed, A431, anti-kappa-ETA'-conjugated": 88.5, "EC50 of cell kill, A431, anti-kappa-ETA'-conjugated": "~0.0101"}
    ]},
    {"target": "T2, human epidermal growth factor receptor …", "assay": "cell-based or functional assay", "remark": "another data set of the same source", "units": {"% cells killed, AU565, anti-kappa-ETA'-conjugated": "%", "EC50 of cell kill, AU565, anti-kappa-ETA'-conjugated": "µg/mL"}, "values": [
      {"binder": "B1", "% cells killed, AU565, anti-kappa-ETA'-conjugated": 67, "EC50 of cell kill, AU565, anti-kappa-ETA'-conjugated": 0.0677},
      {"binder": "B2", "% cells killed, AU565, anti-kappa-ETA'-conjugated": 72, "EC50 of cell kill, AU565, anti-kappa-ETA'-conjugated": 0.0242},
      {"binder": "B3", "% cells killed, AU565, anti-kappa-ETA'-conjugated": 64.3, "EC50 of cell kill, AU565, anti-kappa-ETA'-conjugated": 0.0794},
      {"binder": "B4", "% cells killed, AU565, anti-kappa-ETA'-conjugated": 59.1, "EC50 of cell kill, AU565, anti-kappa-ETA'-conjugated": 0.108},
      {"binder": "B5", "% cells killed, AU565, anti-kappa-ETA'-conjugated": 69.7, "EC50 of cell kill, AU565, anti-kappa-ETA'-conjugated": 0.0151}
    ]},
    {"target": "T2, human epidermal growth factor receptor …", "assay": "cell-based or functional assay", "remark": "another data set of the same source", "units": {"EC50, fab-CypHer5E internalization, AU565": "µg/mL", "Maximal MFI, fab-CypHer5E internalization, AU565": "MFI"}, "values": [
      {"binder": "B1", "EC50, fab-CypHer5E internalization, AU565": 0.0148, "Maximal MFI, fab-CypHer5E internalization, AU565": 77100},
      {"binder": "B2", "EC50, fab-CypHer5E internalization, AU565": 0.0352, "Maximal MFI, fab-CypHer5E internalization, AU565": 81700},
      {"binder": "B3", "EC50, fab-CypHer5E internalization, AU565": 0.0362, "Maximal MFI, fab-CypHer5E internalization, AU565": 68200},
      {"binder": "B4", "EC50, fab-CypHer5E internalization, AU565": 0.0686, "Maximal MFI, fab-CypHer5E internalization, AU565": 57400},
      {"binder": "B5", "EC50, fab-CypHer5E internalization, AU565": 0.0214, "Maximal MFI, fab-CypHer5E internalization, AU565": 95100}
    ]},
    {"target": "T1, HER2ECDHis", "assay": "ELISA; competitor 005", "units": {"% binding vs no competitor": "%"}, "description": "as §1, §2", "values": [
      {"binder": "B1", "% binding vs no competitor": 13},
      {"binder": "B2", "% binding vs no competitor": 51},
      {"binder": "B3", "% binding vs no competitor": 30},
      {"binder": "B4", "% binding vs no competitor": 25},
      {"binder": "B5", "% binding vs no competitor": 18}
    ]},
    {"target": "T1, HER2ECDHis", "assay": "ELISA; competitor 060", "units": {"% binding vs no competitor": "%"}, "description": "as §1, §2", "values": [
      {"binder": "B1", "% binding vs no competitor": 11},
      {"binder": "B2", "% binding vs no competitor": 36},
      {"binder": "B3", "% binding vs no competitor": 19},
      {"binder": "B4", "% binding vs no competitor": 23},
      {"binder": "B5", "% binding vs no competitor": 12}
    ]},
    {"target": "T1, HER2ECDHis", "assay": "ELISA; competitor Tras", "units": {"% binding vs no competitor": "%"}, "description": "as §1, §2", "values": [
      {"binder": "B1", "% binding vs no competitor": 117},
      {"binder": "B2", "% binding vs no competitor": 110},
      {"binder": "B3", "% binding vs no competitor": 106},
      {"binder": "B4", "% binding vs no competitor": 323},
      {"binder": "B5", "% binding vs no competitor": 126}
    ]},
    {"target": "T1, HER2ECDHis", "assay": "ELISA; competitor F5", "units": {"% binding vs no competitor": "%"}, "description": "as §1, §2", "values": [
      {"binder": "B1", "% binding vs no competitor": 128},
      {"binder": "B2", "% binding vs no competitor": 119},
      {"binder": "B3", "% binding vs no competitor": 126},
      {"binder": "B4", "% binding vs no competitor": 495},
      {"binder": "B5", "% binding vs no competitor": 227}
    ]},
    {"target": "T1, HER2ECDHis", "assay": "ELISA; competitor 106", "units": {"% binding vs no competitor": "%"}, "description": "as §1, §2", "values": [
      {"binder": "B1", "% binding vs no competitor": 23},
      {"binder": "B2", "% binding vs no competitor": 75},
      {"binder": "B3", "% binding vs no competitor": 37},
      {"binder": "B4", "% binding vs no competitor": 26},
      {"binder": "B5", "% binding vs no competitor": 54}
    ]}
  ]
}
